Data taken from US20240424125A1 (Zymeworks, published 2024).

What was measured:
[1] = target: T1, FOLR3, commercial purified protein (R&D Systems Cat. No. 5319-FR) (human, UniProt P41439 23-245, limits assumed); assay: ELISA on coated FOLR3 protein
T1 construct: Coated on the ELISA plate; also called folate receptor gamma (FOLR3)
Method: FOLR3 binding: ELISA 96-well plate was coated with commercial purified FOLR3 protein (R&D Systems, Inc., Minneapolis, MN; Cat. No. 5319-FR) for 1 hr at 37° C. The plate was blocked with 1% milk in PBS pH 7.4 for 1 hr at RT. Following blocking, primary antibodies were added at 7 nM for 1 hr at RT. […] Plates were developed using tetramethylbenzidine (TMB) and HCl was used to stop reaction. Absorbance was read at 450 nm using a Synergy™ H1 microplate reader (BioTek Instruments, Winooski, VT).

human FRα on cells [2] = target: T2, human FRα on cells (human, UniProt P15328 25-234); assay: apparent Kd, flow cytometry on HEC-1-A cells (endogenous FRα), 24 h at 4°C
T2 construct: Transiently expressed on HEK293-6e, CHO-S or HEK293 microarray cells, or endogenous on JEG-3, HEC-1-A, IGROV-1, OVCAR-3, H2110, KB-HeLa and T-47D cells; also called human folate receptor alpha; FOLR1
Method: Briefly, cells were seeded at 50,000 cells/well in V-bottom 96-well plates and treated with antibody for 24 hours at 4° C. to prevent internalization. […] Following incubation and washing, fluorescence was detected by flow cytometry on a BD LSRFortessa™ Cell Analyzer (BD Biosciences, Franklin Lake, NJ) with 1,000 minimum events collected per well. AF647/APC-A GeoMean (fluorescence signal geometric mean, proportional to anti-Human AF647 binding) in live cell population was plotted using GraphPad Prism Version 9 (GraphPad Software, San Diego, CA).

human FRα on cells [3] = target: T2, human FRα on cells; assay: flow cytometry, HEK293-6e cells transiently expressing the target, 50 nM antibody
Method: (§1) FRα, FOLR2 and FOLR4 binding: Briefly, HEK293-6e cells were transfected for ˜24 hours to transiently express human FRα (Cat. No. 13420), FOLR2 (Cat. No. 13481) and FOLR4 (Cat. No. 13483) (all from GenScript Biotech, Piscataway, NJ), 1 ug DNA per 1 million cells. Following transfection, 50,000 cells were seeded in V-bottom 96-well plates and incubated with 50 nM primary antibody for 45 min under standard culturing conditions. […] Following incubation and washing, fluorescence was detected by flow cytometry on a BD LSRFortessa™ Cell Analyzer (BD Biosciences, Franklin Lake, NJ) with 1,000 minimum events collected per well.
(§2) By flow cytometry, live singlet cell population was gated using FlowJo™ v8 software (RD Biosciences, Franklin Lake, NJ), and AF647 GeoMean and % positive binding was determined in this population for each antibody.

FOLR2 on HEK293-6e cells = target: T3, FOLR2 on HEK293-6e cells (human, UniProt P14207 17-230); assay: as above
T3 construct: whole, on cells; also called human folate receptor beta (FOLR2)
Method: as §1, §2

FOLR4 on HEK293-6e cells = target: T4, FOLR4 on HEK293-6e cells (human, UniProt A6ND01 20-228); assay: as above
T4 construct: whole, on cells; also called human folate receptor delta (FOLR4)
Method: as §1, §2

[4] = target: T5, recombinant His-tagged human FRα (ACROBiosystems) (human, UniProt P15328 25-233); assay: SPR (Biacore T200): hFRα amine-coupled to CM5 chip at high antigen density, bivalent FSA injected, 1:1 Langmuir fit, mean of n=2
T5 construct: also called hFRα; hFRα antigen; not shown: His tag
Method: (§3) CM5 Series S sensor chip, Biacore™ amine coupling kit (NHS, EDC and 1 M ethanolamine), and 10 mM sodium acetate buffers were purchased from GE Healthcare Life Science (Mississauga, ON, Canada). PBS running buffer with 0.05% Tween20 (PBST) was purchased from Teknova Inc. (Hollister, CA). Recombinant human FRα was purchased from ACRObiosystems (Newark, DE).
(§4) Screening of the variants for binding to hFRα antigen was conducted in two steps: capture of hFRα onto surface, followed by injection of three to five concentrations of variant. The hFRα surface was prepared on a CM5 Series S sensor chip by standard amine coupling methods as described by the manufacturer (GE Healthcare Life Science, Mississauga, ON, Canada). The immobilization of the hFRα was performed using Biacore™ T200 immobilization wizard with an amine coupling method aiming for resonance units (RUs) ranging from 5 to 200 RUs. Using multi-cycle kinetics, three to five concentrations of a two-fold dilution series of samples starting at 300 nM with a blank buffer control were injected at 50 uL/min for 180s with a 600s dissociation phase, resulting in a set of sensorgrams with a buffer blank reference. The hFRα surface was regenerated to prepare for the next injection cycle by one pulse of 10 mM glycine/HCl pH 1.5 for 30s at 30 uL/min. Blank-subtracted sensorgrams were analyzed using Biacore™ T200 Evaluation Software v3.0. The blank-subtracted sensorgrams were then fit to the 1:1 Langmuir binding model.

[5] = target: T5, recombinant His-tagged human FRα …; assay: SPR (Biacore T200): hFRα amine-coupled to CM5 chip at medium antigen density, bivalent FSA injected, 1:1 Langmuir fit, mean of n=2
Method: as §3, §4

[6] = target: T5, recombinant His-tagged human FRα …; assay: BLI (Octet RED96): antibody loaded on anti-human IgG Fc capture biosensors, His-tagged hFRα in solution. Six traces with fit lines plateau between about 0.17 and 0.5 nm during 0-400 s association and decay almost to baseline by 900 s. The legend prints the same globally fitted KD for all six traces (single run; the text prints only the mean of n=2).
Method: The assay buffer used was KB buffer (kinetics buffer, composed of PBS pH 7.4, 0.1% BSA, 0.02% Tween 20, 0.05% sodium azide) supplemented with 0.06% Tween 20 and in some instances also with 1% BSA. The experiment was conducted at 30° C. with a shake speed of 1000 rpm.
Data analysis was performed using Data Analysis Software 9.0 (ForteBio, Fremont CA). The reference-subtracted binding curves were globally fitted to the 1:1 interaction model to generate the binding kinetic parameters kₒₙ, koff, and the dissociation constant KD.

T5 sequence (P15328 25-233 limits assumed): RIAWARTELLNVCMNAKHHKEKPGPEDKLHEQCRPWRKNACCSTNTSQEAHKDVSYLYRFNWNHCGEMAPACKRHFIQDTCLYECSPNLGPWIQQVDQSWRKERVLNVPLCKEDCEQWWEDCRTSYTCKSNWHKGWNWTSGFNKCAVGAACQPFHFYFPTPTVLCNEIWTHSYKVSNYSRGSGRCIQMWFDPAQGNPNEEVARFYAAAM
T2 sequence (P15328 25-234 limits assumed): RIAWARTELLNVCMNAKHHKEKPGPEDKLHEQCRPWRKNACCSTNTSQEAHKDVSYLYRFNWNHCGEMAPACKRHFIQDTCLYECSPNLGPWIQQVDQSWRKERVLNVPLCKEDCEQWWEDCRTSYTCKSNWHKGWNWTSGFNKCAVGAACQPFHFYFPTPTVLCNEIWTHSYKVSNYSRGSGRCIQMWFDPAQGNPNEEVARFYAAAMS
T3 sequence (P14207 17-230): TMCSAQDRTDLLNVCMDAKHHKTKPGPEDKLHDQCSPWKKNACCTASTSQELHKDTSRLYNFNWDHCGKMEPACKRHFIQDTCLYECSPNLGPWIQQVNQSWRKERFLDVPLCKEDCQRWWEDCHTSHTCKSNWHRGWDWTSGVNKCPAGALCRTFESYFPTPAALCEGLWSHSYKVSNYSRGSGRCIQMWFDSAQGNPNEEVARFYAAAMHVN
T4 sequence (A6ND01 20-228): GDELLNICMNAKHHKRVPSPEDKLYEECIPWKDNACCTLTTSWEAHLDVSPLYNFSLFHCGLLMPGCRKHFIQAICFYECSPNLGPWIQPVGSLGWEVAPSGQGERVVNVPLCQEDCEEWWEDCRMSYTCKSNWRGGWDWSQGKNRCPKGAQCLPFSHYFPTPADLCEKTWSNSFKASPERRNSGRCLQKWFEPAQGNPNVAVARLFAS
T1 sequence (P41439 23-245 limits assumed): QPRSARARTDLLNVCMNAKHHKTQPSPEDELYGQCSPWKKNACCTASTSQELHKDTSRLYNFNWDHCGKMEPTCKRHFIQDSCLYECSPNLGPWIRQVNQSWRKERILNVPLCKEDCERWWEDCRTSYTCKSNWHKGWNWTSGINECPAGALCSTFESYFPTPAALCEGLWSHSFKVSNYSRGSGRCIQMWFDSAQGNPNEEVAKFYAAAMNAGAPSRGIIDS

binding result [1]: no binding (tested: 7 nM)
Kd (human FRα on cells [2]): 0.05 nM
% Positive Binding, singlet population (human FRα on cells [3]): 71%
AF647/DyLight650 GeoMean, singlet population (human FRα on cells [3]): 7660
% Positive Binding, singlet population (FOLR2 on HEK293-6e cells): 0%
AF647/DyLight650 GeoMean, singlet population (FOLR2 on HEK293-6e cells): 7
% Positive Binding, singlet population (FOLR4 on HEK293-6e cells): 0%
AF647/DyLight650 GeoMean, singlet population (FOLR4 on HEK293-6e cells): 27
Kd [4]: 0.278 nM
Kd [5]: 1.37 nM
Kd [6]: 20.6 nM
B1: v23924 (antibody, human IgG1, kappa, V domains shown)
VH: QSVKESEGGLFKPTDTLTLTCTVSGFSLSSYGVSWVRQAPGNGLEWIGAVNSGGSAYYANWAKSRSTITRNTNLFTVTLKMTSLAVADTATYFCARSGSGYPMDYLAIWGPGTLVTVSS
VL: AYDMTQTPASVEVAVGGTVTIKCQASQSIGDWLAWYQQKPGQPPRLLIYEASTLASGVPSRFSGSGSGTQFTLTISGVECADAATYYCQQGYGRSNVDNIFGGGTEVVVKR
notes: Rabbit-human chimeric full-size antibody, human IgG1/kappa, HomoFc; also called variant v23924; parental chimeric anti-FRα antibody
